Test results published in patent US20030124590A1, “Carbohydrate response element binding protein and uses thereof” (priority 2001, published 2003).
One block for each molecule: values may come before it. No end group written: not given here.

Columns and labels:
L-PK gene [1] = test: Glucose-induced L-PK transcription (luciferase) in ChREBP overexpressed hepatocytes with fatty acids or AICAR; type: cell-based, rat; settings: 27.5 mM glucose
Procedure: After a six h attachment period, hepatocytes were transfected using synthetic liposome (Lipofectamine 2000; Life Technologies) in Opti-MEM I reduced serum medium as described (Yamashita et al. Proc. Natl. Acad. Sci. USA 98, 9116-9121) and incubated for 12 h. As a control, hepatocytes were exposed to synthetic liposome in the same manner as each experimental group. […] The source of albumin for all studies was essentially fatty acid-free bovine serum albumin. Transfected cells were cultured for 12 h in culture medium containing 27.5 mM glucose plus 150 μM albumin-bound specific fatty acids or AICAR, washed twice with 2 ml Ca2+- and Mg2+-free phosphate-buffered saline, and lysed with Passive lysis buffer (Promega). Firefly luciferase and renilla (sea pansy) luciferase activities were measured sequentially using a Dual-Luciferase Reporter assay system (Promega) and a model TD-20E Luminometer (Turner Design, Sunnyvale, Calif.). After measuring the firefly luciferase signal and the renilla luciferase signal, the index of relative luciferase activity, indicating L-PK transcription activity, was calculated according to manufacturer's instructions (Promega).

L-PK gene [2] = test: L-PK promoter luciferase reporter in ChREBP-transfected primary hepatocytes with kinase/phosphatase inhibitors or db-cAMP; settings: for transcriptional activity of the L-PK gene in ChREBP-overexpressed hepatocytes: 5.5 and 27.5 mM glucose, 12 h, 10 μM H-89, 500 nM cantharidic acid, 5 μM KN-62, 30 μM PD98059, 50 μM Genistein
Procedure: Primary hepatocytes were prepared from male Sprague-Dawley rats using the collagenase (Life Technologies, Inc.) perfusion method (Berry and Friend (1969) J Cell Bio […], 506-520) and plated in collagen-coated six-well tissue culture plates (Primaria Falcon, Franklin Lakes, N.J.) at a density of 1×10^6 cells/well in glucose-free Dulbecco's modified Eagle's medium (Life Technologies, Inc.) supplemented with 100 nM dexamethasone, 10 nM insulin, 100 units/ml penicillin, 100 μg/ml streptomycin and 10% dialyzed fetal bovine serum (Life Technologies, Inc.). Following attachment, synthetic liposomes were used to transfect hepatocytes with 0.5 μg of the luciferase reporter plasmid and 0.1 μg of the internal control plasmid pRL-TK. After 14 h the media was replaced by Dulbecco's modified Eagle medium supplemented with 100 nM dexamethasone, 10 nM insulin, 10% Fetal Bovine Serum and either 10 mM lactate, 5.5 mM glucose or 27.5 mM glucose. The cells were incubated for an additional 12 h prior to determination of luciferase activity using the Dual-Luciferase Reporter Assay System (Promega).
Protein Kinase and Protein Phosphatase Inhibitors—Prior to exchange to 5.5 or 27.5 mM glucose medium, transfected primary culture hepatocytes were treated for 1 h with 10 μM H-89, 500 nM cantharidic acid (Calbiochem), 5 μM KN-62 (Calbiochem), 30 μM PD98059 (Calbiochem), 50 μM Genistein, or dimethylsulfoxide vehicle.
Rat primary cultured hepatocytes were transfected a plasmid comprising a gene encoding the wild type (WT)-ChREBP. H-89, cantharidic acid, or dimethylsulfoxide vehicle was added, and the cells were incubated in 5.5 mM (□) or 27.5 mM (▪) glucose for 12 h.
Rat primary cultured hepatocytes were transfected with wild type (WT)-ChREBP, S626A, S626D, T666A, or T666D. After transfection, the cells were incubated in 5.5 mM (□) or 27.5 mM (▪) glucose for 12 h. […] Rat primary cultured hepatocytes were transfected with wild type (WT)-ChREBP, S196A+S626A, or S196A+T666A. After transfection, cells were incubated under 5.5 mM (□) or 27.5 mM (▪) glucose, and cAMP was added both low and high glucose.

GFP-fused ChREBP = test: Subcellular localization of GFP-fused ChREBP in primary hepatocytes (confocal microscopy); type: cell-based, rat; settings: 12 h
Procedure: Determination of Subcellular Localization of ChREBP—Subcellular localization of GFP-fused WT-ChREBP or its mutants was determined using a confocal laser scanning microscope (Bio Rad, Hercules, Calif.). In order to quantitate nuclear localization of ChREBP, for each condition, 100 transfected hepatocytes from 5 independent experiments were scored in a blinded fashion as to whether the GFP-fused ChREBP was predominantly nuclear or cytoplasmic. The identity of the nucleus was verified by comparative phase-contrast microscopy. B. Results
Rat primary cultured hepatocytes were transfected with a plasmid comprising a gene encoding the GFP-fused wild type-ChREBP or NLS domain deletion mutants. […] The values are expressed as mean±SE. *P<0.05 compared to that of wild type-ChREBP.

[3] = target: T1, nuclear Xu-5-P activated PPase (Rattus norvegicus, UniProt P63331); test: Protein phosphatase assay, nuclear Xu-5-P activated PPase of liver; type: biochemical; settings: for inhibition of nuclear PPase (in words): 500 nM cantharidic acid, 300 nM deltamethrin; for Nuclear PPase activity, +Xu5P / Nuclear PPase activity, None: Mono Q purified, phosphorylated peptide as substrate; for Nuclear PPase activity, None: absence of Xu-5-P
T1 construct: from tissue; host or cells: rat liver nuclear extract, DEAE-cellulose then Mono Q
T1 sequence (P63331 whole entry): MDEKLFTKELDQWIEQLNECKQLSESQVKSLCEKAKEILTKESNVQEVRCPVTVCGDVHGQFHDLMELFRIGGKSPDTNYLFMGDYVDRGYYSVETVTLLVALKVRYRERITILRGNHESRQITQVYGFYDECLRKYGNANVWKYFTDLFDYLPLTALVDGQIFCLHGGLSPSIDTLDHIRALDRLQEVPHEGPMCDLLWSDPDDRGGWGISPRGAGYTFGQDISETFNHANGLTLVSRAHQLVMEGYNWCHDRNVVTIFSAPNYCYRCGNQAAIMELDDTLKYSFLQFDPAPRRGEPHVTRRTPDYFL
T1 sequence (P56932 whole entry partner): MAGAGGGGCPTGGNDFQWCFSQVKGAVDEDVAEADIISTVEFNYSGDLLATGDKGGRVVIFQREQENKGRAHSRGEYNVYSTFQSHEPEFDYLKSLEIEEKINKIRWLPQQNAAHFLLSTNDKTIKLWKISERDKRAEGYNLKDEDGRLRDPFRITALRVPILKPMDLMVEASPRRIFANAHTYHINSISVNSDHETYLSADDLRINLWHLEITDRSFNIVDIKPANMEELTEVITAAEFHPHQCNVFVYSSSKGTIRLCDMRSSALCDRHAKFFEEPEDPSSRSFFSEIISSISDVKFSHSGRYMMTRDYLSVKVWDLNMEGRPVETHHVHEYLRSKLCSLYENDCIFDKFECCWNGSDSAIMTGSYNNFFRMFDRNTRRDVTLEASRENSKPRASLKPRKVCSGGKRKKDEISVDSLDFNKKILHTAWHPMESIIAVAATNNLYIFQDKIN
T1 sequence (Q5XI34 1-589 partner): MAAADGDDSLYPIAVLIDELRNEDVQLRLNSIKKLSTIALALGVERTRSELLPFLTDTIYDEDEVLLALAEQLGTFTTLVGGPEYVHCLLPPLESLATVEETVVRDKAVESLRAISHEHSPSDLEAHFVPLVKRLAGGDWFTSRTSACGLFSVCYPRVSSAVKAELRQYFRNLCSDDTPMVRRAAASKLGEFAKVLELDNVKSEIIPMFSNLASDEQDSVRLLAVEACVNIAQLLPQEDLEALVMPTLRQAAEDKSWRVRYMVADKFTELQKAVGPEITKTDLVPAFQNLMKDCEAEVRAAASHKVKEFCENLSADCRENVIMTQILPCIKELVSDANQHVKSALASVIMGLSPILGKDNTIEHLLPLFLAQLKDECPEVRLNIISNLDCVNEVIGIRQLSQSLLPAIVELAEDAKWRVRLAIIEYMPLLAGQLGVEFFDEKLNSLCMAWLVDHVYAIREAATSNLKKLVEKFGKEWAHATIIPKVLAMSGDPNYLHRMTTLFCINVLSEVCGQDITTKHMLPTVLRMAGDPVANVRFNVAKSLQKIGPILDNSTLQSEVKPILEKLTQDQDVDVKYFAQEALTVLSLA
Procedure: Liver nuclear extracts were prepared as described in Example 1.
(§1) Synthetic peptides corresponding to amino acids #187-201 ([…] “P1” peptide) (SEQ ID NO:64), #556-573 ([…], “P4” peptide) (SEQ ID NO:65), and #655-674 ([…]; “P3” peptide) (SEQ ID NO:66), of ChREBP were prepared by the Peptide Synthesis Service of University of Texas Southwestern Medical Center. These peptides were phosphorylated by 10 U of PKA for 6 h at 30° C. P4 peptide corresponding to 556-573 ([…]) (SEQ ID NO:65), was phosphorylated by 10 U of AMPK for 5 h at 30° C. The reaction mixtures were passed through on a Dowex AG1X8 column (0.5 cm×5 cm) which had been equilibrated with 30% acetic acid to remove residual [^32P]-ATP. The labeled peptides in the pass through fraction were lyophilized.
(§2) Protein phosphatase activity was determined by the method of Deana et al (Deana et al. (1990) Biochem, Biophys. Acta. 1051: 199-202). The reaction mixture contained in a final volume of 50 μ1,20 mM MOPS, pH 7.0, 1 mM DTT, 25 μg of BSA, and ^32P-labeled substrate for 15 min at 30° C. The reaction was terminated by the addition of 10% trichloroacetic acid. Phosphate released was converted to a phosphomolybdic complex followed by organic solvent (isobutyl alcohol:heptane, 1:1) extraction of the complex. The reaction mixture was mixed thoroughly and centrifuged. An aliquot of the top layer was then added to 5 ml scintillation fluid and counted. One unit of protein phosphatase is defined as that amount which catalyzes the release of 1.0 μmol of ^32P/min at 30° C.
(§3) These peptides were assayed with Mono Q purified cytosolic and nuclear PPases in the presence and absence of 50 μM Xu-5-P.

[4] = target: T2, cytosolic Xu-5-P activated PPase (Rattus norvegicus, UniProt P63331); test: Protein phosphatase assay, cytosolic Xu-5-P activated PPase of liver; type: biochemical; settings: for inhibition of cytosolic Xu-5-P activated PPase (in words): okadaic acid 10 nM (absence and presence of Xu-5-P), cantharidic acid 500 nM, deltamethrin 300 nM; for Cytosol. PPase activity, +Xu5P / Cytosol. PPase activity, None: Mono Q purified, phosphorylated peptide as substrate; for Cytosol. PPase activity, None: absence of Xu-5-P
T2 construct: from tissue; host or cells: rat liver cytosolic extract, DEAE-cellulose then Mono Q
T2 sequence (P63331 whole entry): as the sequence (P63331 whole entry) above
T2 sequence (P56932 whole entry partner): as the sequence (P56932 whole entry partner) above
T2 sequence (Q5XI34 1-589 partner): as the sequence (Q5XI34 1-589 partner) above
Procedure: Liver was homogenized in a motor-driven Potter-Elvehjem homogenizer in 1 volume of extraction buffer containing 10 mM Hepes (pH 7.9), 10 mM KCl, 0.1 mM EDTA, 0.74 mM spermidine, 0.25 M sucrose, 50 mM imidazole, 1 mM dithiothreitol (DTT), 4 mM phenylmethanesulfonyl fluoride, and 1 mM benzamidine, and the extract was centrifuged at 10,000×g for 30 min.
as §1, §2, §3

cultured hepatocytes = test: AMP, ADP, ATP assays in cultured hepatocytes; type: cell-based, rat; settings: hepatocytes 12 h with 150 µM fatty acid, mean±S.E., n=4
Procedure: Hepatocytes were scraped and collected directly into 0.5 ml of ice-cold 6% (v/v) HClO4. The concentrations of ADP and ATP were determined enzymatically in the acid-extract with methods described (Kawaguchi, T., Veech, R. L., and Uyeda, K. (2001) J. Biol. Chem. 276, 28554-28561), and the cytosolic AMP was calculated by the method of Veech et al. (Veech, R. L., Lawson, J. W., Cornell, N. W., and Krebs, H. A. (1979) J. Biol. Chem. 254, 6538-6547).
Values are expressed as mean±S.E. (n=4).

[5] = target: ChREBP (Carbohydrate Response Element Binding Protein) from rat liver (rat) (UniProt Q8VIP2); test: cell-based or functional assay
Sequence of ChREBP (Carbohydrate Response Element Binding Protein) from rat liver (rat) (Q8VIP2 whole entry): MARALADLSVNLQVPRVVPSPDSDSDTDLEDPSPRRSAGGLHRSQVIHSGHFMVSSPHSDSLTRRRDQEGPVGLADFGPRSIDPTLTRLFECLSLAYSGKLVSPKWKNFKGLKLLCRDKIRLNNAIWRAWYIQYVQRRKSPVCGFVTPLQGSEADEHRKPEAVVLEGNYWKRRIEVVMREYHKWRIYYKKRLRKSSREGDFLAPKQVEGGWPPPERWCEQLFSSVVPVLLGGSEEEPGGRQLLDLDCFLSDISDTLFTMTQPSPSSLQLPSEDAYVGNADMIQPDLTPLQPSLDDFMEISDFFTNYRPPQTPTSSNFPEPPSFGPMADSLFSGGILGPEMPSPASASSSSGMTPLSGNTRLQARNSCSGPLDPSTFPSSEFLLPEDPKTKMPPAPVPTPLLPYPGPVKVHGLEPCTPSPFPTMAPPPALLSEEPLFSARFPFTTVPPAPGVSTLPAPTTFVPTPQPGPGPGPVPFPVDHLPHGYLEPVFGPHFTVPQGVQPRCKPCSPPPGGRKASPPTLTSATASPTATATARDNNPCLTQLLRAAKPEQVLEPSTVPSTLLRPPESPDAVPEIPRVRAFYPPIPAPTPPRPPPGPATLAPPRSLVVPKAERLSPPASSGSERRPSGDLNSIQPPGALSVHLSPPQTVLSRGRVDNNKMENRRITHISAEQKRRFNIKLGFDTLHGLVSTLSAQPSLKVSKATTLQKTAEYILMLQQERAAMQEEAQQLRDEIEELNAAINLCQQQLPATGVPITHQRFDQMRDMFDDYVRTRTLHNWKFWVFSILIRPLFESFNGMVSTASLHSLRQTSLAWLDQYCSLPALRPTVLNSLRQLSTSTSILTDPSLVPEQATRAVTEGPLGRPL

[6] = tested on: T3, P3 peptide of ChREBP (amino acids #655-674), phosphorylated by PKA
T3 sequence: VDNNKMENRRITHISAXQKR

[7] = tested on: T4, P4 peptide of ChREBP (amino acids #556-573), phosphorylated by AMPK
T4 sequence: STVPSTLLRPPESPDAVP

[8] = tested on: T5, P1 peptide of ChREBP (amino acids #187-201), phosphorylated by PKA
T5 sequence: YYKKRLRKSSREGDF

[9] = Mono Q purified enzyme, 50 μM Xu-5-P

inhibition of glucose activation of L-PK gene transcription (L-PK gene [1]; AICAR 50 μM): approximately 80% | inhibition of glucose activation of L-PK gene transcription (L-PK gene [1]; AICAR 200 μM): over 90%
Molecule: NC(=O)c1ncn([C@@H]2O[C@H](COP(=O)(O)O)[C@@H](O)[C@H]2O)c1N [AICAR, 5-amino-4-imidazolecarboxamide ribotide]

Molecule: O=c1c(-c2ccc(O)cc2)coc2cc(O)cc(O)c12 [Genistein]
transcriptional activity of the L-PK gene in ChREBP-overexpressed hepatocytes (L-PK gene [2]): did not affect

Molecule: O=S(=O)(NCCNC/C=C/c1ccc(Br)cc1)c1cccc2cnccc12 [H-89]
nuclear staining rate of GFP-fused ChREBP (GFP-fused ChREBP; 5.5 mM glucose, 10 μM H-89): increased | effect on endogenous ChREBP (L-PK transcriptional activity) (L-PK gene [2]; 10 μM H-89, hepatocytes without ChREBP overexpression): stimulated | transcriptional activity of the L-PK gene in ChREBP-overexpressed hepatocytes (L-PK gene [2]): increased

Molecule: CN([C@@H](Cc1ccc(OS(=O)(=O)c2cccc3cnccc23)cc1)C(=O)N1CCN(c2ccccc2)CC1)S(=O)(=O)c1cccc2cnccc12 [KN-62]
transcriptional activity of the L-PK gene in ChREBP-overexpressed hepatocytes (L-PK gene [2]): did not affect

Molecule: COc1cccc(-c2cc(=O)c3ccccc3o2)c1N [PD98059]
transcriptional activity of the L-PK gene in ChREBP-overexpressed hepatocytes (L-PK gene [2]): did not affect

extent of activation of nuclear PPase by Xu-5-P [3, 9]: 1.8 fold | activation of nuclear PPase, P3 peptide substrate ([3]; crude nuclear extract, added Xu-5-P): activated | activation of nuclear PPase, P4 peptide substrate ([3]; nuclear extract): activated | extent of activation of cytosolic PPase by Xu-5-P [4, 9]: 1.8 fold | activation of P1 dephosphorylation by PPase of desalted cytosolic liver extract ([4]; only metabolite among glycolysis and pentose shunt intermediates examined): able to activate
Molecule: O=C(CO)[C@@H](O)[C@H](O)COP(=O)(O)O [Xu-5-P]

Molecule: CC(=O)O [acetate]
AMP (cultured hepatocytes): 910 ± 87 nmol/g cells

Molecule: CC1(C(=O)O)C2CCC(O2)C1(C)C(=O)O (centres unmarked) [cantharidic acid]
inhibition of nuclear PPase (in words) [3]: completely inhibited | inhibition of cytosolic Xu-5-P activated PPase (in words) [4]: completely | nuclear staining rate of GFP-fused ChREBP (GFP-fused ChREBP; 500 nM cantharidic acid, 5.5 or 27.5 mM glucose): significantly decreased | transcriptional activity of the L-PK gene in ChREBP-overexpressed hepatocytes (L-PK gene [2]): inhibited

Molecule: CC1(C)[C@H](C(=O)O[C@H](C#N)c2cccc(Oc3ccccc3)c2)[C@@H]1C=C(Br)Br [deltamethrin]
inhibition of nuclear PPase (in words) [3]: not affected | inhibition of cytosolic Xu-5-P activated PPase (in words) [4]: did not affect

Nuclear PPase activity, +Xu5P ([3]; 50 μM Xu-5-P): 0.93 units/mg | Nuclear PPase activity, None [3]: 0.55 units/mg | Cytosol. PPase activity, +Xu5P ([4]; 50 μM Xu-5-P): 11.2 units/mg | Cytosol. PPase activity, None [4]: 6.2 units/mg
Molecule: P1 peptide: synthetic peptide, amino acids #187-201 of ChREBP, YYKKRLRKSSREGDF, phosphorylated by PKA (also: phosphorylated by PKA, site not given here)

Nuclear PPase activity, +Xu5P ([3]; 50 μM Xu-5-P): 0.94 units/mg | Nuclear PPase activity, None [3]: 0.52 units/mg | Cytosol. PPase activity, +Xu5P ([4]; 50 μM Xu-5-P): 11.0 units/mg | Cytosol. PPase activity, None [4]: 6.0 units/mg
Molecule: P3 peptide: synthetic peptide, amino acids #655-674 of ChREBP, VDNNKMENRRITHISAEQKR, phosphorylated by PKA (also: phosphorylated by PKA, site not given here)

reduction in DNA-binding activity of ChREBP after phosphorylation (gel shift) [5]: 90%
Molecule: catalytic subunit of cAMP-dependent protein kinase (PKA) (enzyme)

Molecule: cytosolic Xu-5-P activated PPase (Mono Q purified, rat liver)
PPase activity (units/mg), +Xu5P (50 µM) [6]: 11 units/mg | PPase activity (units/mg), no Xu-5-P [6]: 6 units/mg | PPase activity (units/mg), +Xu5P (50 µM) [7]: 8.8 units/mg | PPase activity (units/mg), no Xu-5-P [7]: 5.2 units/mg | PPase activity (units/mg), +Xu5P (50 µM) [8]: 11.2 units/mg | PPase activity (units/mg), no Xu-5-P [8]: 6.2 units/mg

Molecule: nuclear Xu-5-P activated PPase (Mono Q purified, rat liver)
PPase activity (units/mg), +Xu5P (50 µM) [6]: 0.94 units/mg | PPase activity (units/mg), no Xu-5-P [6]: 0.52 units/mg | PPase activity (units/mg), +Xu5P (50 µM) [7]: 0.67 units/mg | PPase activity (units/mg), no Xu-5-P [7]: 0.39 units/mg | PPase activity (units/mg), +Xu5P (50 µM) [8]: 0.93 units/mg | PPase activity (units/mg), no Xu-5-P [8]: 0.55 units/mg
